According to the supplement of paper PMC10567573:

B1: KRT13 (parent)
chain: YGGGLGGGFGGGFAGGFVDFGACD
B2: EPB41L3 (parent)
chain: FRFAPNHTKELEDKVIELHKSHRG
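Note: lentivirally expressed fusions sorted by FACS into six bins by GFP to DsRed ratio, PSI derived from sequencing read proportions per bin multiplied by bin number.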

Variants of: B1
Experiment: protein stability index of a GFP-peptide fusion (GPS, HEK-293T) (PSI 1-6); higher = more stable
Conditions: c terminus: a fixed tail appended
Variant YGGGLGGGFGGGFAGGFVDFGASD [C23S] has a protein stability index of 1.92. YGGGLGGGFGGGFAGGFVDFGAWD [C23W] gave a protein stability index of 1.84. In the case of YGGGLGGGFGGGFAGGFVDFGAVD [C23V], the protein stability index is reported as 1.22. With YGGGLGGGFGGGFAGGFVDFGATD [C23T] the protein stability index was 1.81. For YGGGLGGGFGGGFAGGFVDFGAND [C23N], the protein stability index was 1.76. In the case of YGGGLGGGFGGGFAGGFVDFGAQD [C23Q], the protein stability index is reported as 1.31. YGGGLGGGFGGGFAGGFVDFGAMD [C23M] gave a protein stability index of 1.49. YGGGLGGGFGGGFAGGFVDFGAYD [C23Y] showed a protein stability index of 1.6. For YGGGLGGGFGGGFAGGFVDFGAED [C23E], the protein stability index was 2.14. YGGGLGGGFGGGFAGGFVDFGALD [C23L] showed a protein stability index of 1.72. Work on YGGGLGGGFGGGFAGGFVDFGAID [C23I] yielded a protein stability index of 1.53. With YGGGLGGGFGGGFAGGFVDFGADD [C23D] the protein stability index was 1.31. Work on YGGGLGGGFGGGFAGGFVDFGARD [C23R] yielded a protein stability index of 2.79. In the case of YGGGLGGGFGGGFAGGFVDFGAHD [C23H], the protein stability index is reported as 2.2. YGGGLGGGFGGGFAGGFVDFGAGD [C23G] gave a protein stability index of 1.83. YGGGLGGGFGGGFAGGFVDFGAFD [C23F] showed a protein stability index of 1.41. Variant YGGGLGGGFGGGFAGGFVDFGAKD [C23K] has a protein stability index of 2.01. Variant YGGGLGGGFGGGFAGGFVDFGAAD [C23A] has a protein stability index of 3.97. For YGGGLGGGFGGGFAGGFVDFGAPD [C23P], the protein stability index was 1.8. YGGGLGGGFGGGFAGGFVDFGACK [D24K] gave a protein stability index of 1.43. With YGGGLGGGFGGGFAGGFVDFGACR [D24R] the protein stability index was 2.16. YGGGLGGGFGGGFAGGFVDFGACT [D24T] showed a protein stability index of 1.91. YGGGLGGGFGGGFAGGFVDFGACH [D24H] gave a protein stability index of 1.49. In the case of YGGGLGGGFGGGFAGGFVDFGACV [D24V], the protein stability index is reported as 2.45. For YGGGLGGGFGGGFAGGFVDFGACF [D24F], the protein stability index was 2.17. Variant YGGGLGGGFGGGFAGGFVDFGACN [D24N] has a protein stability index of 3.54. YGGGLGGGFGGGFAGGFVDFGACW [D24W] gave a protein stability index of 3.82. YGGGLGGGFGGGFAGGFVDFGACP [D24P] gave a protein stability index of 1.85. YGGGLGGGFGGGFAGGFVDFGACQ [D24Q] gave a protein stability index of 1.91. YGGGLGGGFGGGFAGGFVDFGACE [D24E] gave a protein stability index of 2.57. Variant YGGGLGGGFGGGFAGGFVDFGACI [D24I] has a protein stability index of 5.23. For YGGGLGGGFGGGFAGGFVDFGACS [D24S], the protein stability index was 2.43. For YGGGLGGGFGGGFAGGFVDFGTCD [A22T], the protein stability index was 1.9. YGGGLGGGFGGGFAGGFVDFGNCD [A22N] showed a protein stability index of 1.95. In the case of YGGGLGGGFGGGFAGGFVDFGYCD [A22Y], the protein stability index is reported as 1.99. Work on YGGGLGGGFGGGFAGGFVDFGQCD [A22Q] yielded a protein stability index of 2.34. Variant YGGGLGGGFGGGFAGGFVDFGWCD [A22W] has a protein stability index of 1.75. In the case of YGGGLGGGFGGGFAGGFVDFGMCD [A22M], the protein stability index is reported as 2.09. In the case of YGGGLGGGFGGGFAGGFVDFGVCD [A22V], the protein stability index is reported as 2.4. Work on YGGGLGGGFGGGFAGGFVDFGSCD [A22S] yielded a protein stability index of 1.2. YGGGLGGGFGGGFAGGFVDFGPCD [A22P] gave a protein stability index of 2.27.

Variants of: B2
Experiment: as above
Conditions: c terminus: a fixed tail appended
In the case of FFFAPNHTKELEDKVIELHKSHRG [R2F], the protein stability index is reported as 2.81. FSFAPNHTKELEDKVIELHKSHRG [R2S] gave a protein stability index of 3.56. FPFAPNHTKELEDKVIELHKSHRG [R2P] gave a protein stability index of 3.82. With FNFAPNHTKELEDKVIELHKSHRG [R2N] the protein stability index was 3.96. FWFAPNHTKELEDKVIELHKSHRG [R2W] showed a protein stability index of 2.88. In the case of FTFAPNHTKELEDKVIELHKSHRG [R2T], the protein stability index is reported as 3.79. With FMFAPNHTKELEDKVIELHKSHRG [R2M] the protein stability index was 2.89. FAFAPNHTKELEDKVIELHKSHRG [R2A] showed a protein stability index of 3.49. With FLFAPNHTKELEDKVIELHKSHRG [R2L] the protein stability index was 2.78. Work on FQFAPNHTKELEDKVIELHKSHRG [R2Q] yielded a protein stability index of 3.89. For FDFAPNHTKELEDKVIELHKSHRG [R2D], the protein stability index was 3.5. FEFAPNHTKELEDKVIELHKSHRG [R2E] showed a protein stability index of 4.02. Work on FHFAPNHTKELEDKVIELHKSHRG [R2H] yielded a protein stability index of 2.01. Variant FYFAPNHTKELEDKVIELHKSHRG [R2Y] has a protein stability index of 3.27. For FKFAPNHTKELEDKVIELHKSHRG [R2K], the protein stability index was 3.81. With FCFAPNHTKELEDKVIELHKSHRG [R2C] the protein stability index was 3.36. In the case of FIFAPNHTKELEDKVIELHKSHRG [R2I], the protein stability index is reported as 2.03. Variant FGFAPNHTKELEDKVIELHKSHRG [R2G] has a protein stability index of 3.94. With FVFAPNHTKELEDKVIELHKSHRG [R2V] the protein stability index was 2.36. In the case of FRKAPNHTKELEDKVIELHKSHRG [F3K], the protein stability index is reported as 4.63. For FRGAPNHTKELEDKVIELHKSHRG [F3G], the protein stability index was 4.63. With FRYAPNHTKELEDKVIELHKSHRG [F3Y] the protein stability index was 2.28. FRAAPNHTKELEDKVIELHKSHRG [F3A] showed a protein stability index of 3.78. With FRTAPNHTKELEDKVIELHKSHRG [F3T] the protein stability index was 3.99. FREAPNHTKELEDKVIELHKSHRG [F3E] showed a protein stability index of 4.57. For FRRAPNHTKELEDKVIELHKSHRG [F3R], the protein stability index was 3.6. Variant FRIAPNHTKELEDKVIELHKSHRG [F3I] has a protein stability index of 3.86. FRCAPNHTKELEDKVIELHKSHRG [F3C] gave a protein stability index of 3.74. In the case of FRNAPNHTKELEDKVIELHKSHRG [F3N], the protein stability index is reported as 4.21. FRWAPNHTKELEDKVIELHKSHRG [F3W] gave a protein stability index of 2.97. FRVAPNHTKELEDKVIELHKSHRG [F3V] showed a protein stability index of 4.42. FRLAPNHTKELEDKVIELHKSHRG [F3L] gave a protein stability index of 3.48. FRQAPNHTKELEDKVIELHKSHRG [F3Q] gave a protein stability index of 4.16. In the case of FRDAPNHTKELEDKVIELHKSHRG [F3D], the protein stability index is reported as 4.48. Variant FRSAPNHTKELEDKVIELHKSHRG [F3S] has a protein stability index of 4.07. Variant FRPAPNHTKELEDKVIELHKSHRG [F3P] has a protein stability index of 4.25. Work on FRHAPNHTKELEDKVIELHKSHRG [F3H] yielded a protein stability index of 4.03. With FRMAPNHTKELEDKVIELHKSHRG [F3M] the protein stability index was 4.02. In the case of FRFAPMHTKELEDKVIELHKSHRG [N6M], the protein stability index is reported as 1.83. In the case of FRFAPIHTKELEDKVIELHKSHRG [N6I], the protein stability index is reported as 1.55. Work on FRFAPVHTKELEDKVIELHKSHRG [N6V] yielded a protein stability index of 1.53. FRFAPKHTKELEDKVIELHKSHRG [N6K] gave a protein stability index of 1.92. With FRFAPEHTKELEDKVIELHKSHRG [N6E] the protein stability index was 3.17. Variant FRFAPSHTKELEDKVIELHKSHRG [N6S] has a protein stability index of 2.17. FRFAPPHTKELEDKVIELHKSHRG [N6P] gave a protein stability index of 2.23. Variant FRFAPHHTKELEDKVIELHKSHRG [N6H] has a protein stability index of 2.54. In the case of FRFAPLHTKELEDKVIELHKSHRG [N6L], the protein stability index is reported as 2.37. FRFAPTHTKELEDKVIELHKSHRG [N6T] showed a protein stability index of 2.08. In the case of FRFAPFHTKELEDKVIELHKSHRG [N6F], the protein stability index is reported as 1.74. FRFAPQHTKELEDKVIELHKSHRG [N6Q] gave a protein stability index of 2.02. In the case of FRFAPCHTKELEDKVIELHKSHRG [N6C], the protein stability index is reported as 1.97. With FRFAPRHTKELEDKVIELHKSHRG [N6R] the protein stability index was 2.03. For FRFAPGHTKELEDKVIELHKSHRG [N6G], the protein stability index was 2.56.
